This is an account of results in article PMC6470140 (Nature Communications, 2019).

In the experiment the target is synthetic peptide representing residues 620-635 of the BDBV GP2 stalk epitope (Bundibugyo virus). Kind of experiment: crystal structure. To be noted: both partners purified.

B1: BDBV223 Fab (Fab, V domains shown)
VH: QVQLQQWGAGLLKPSETLSLTCAVYGGSFTTTYWNWIRQPPGKGLEWIGEVNYSGNANYNPSLKGRVAISVDTSKNQFSLRLNSVTAADTAIYYCTSRIRSHIAYSWKGDVWGKGTTVTVSS
VL: EIVMTQSPGTLSLSPGERATLSCRASQSVPRNYIGWFQQKPGQAPRLLIYGASSRAAGFPDRFSGSGSGTDFTLTITRLEPEDFAMYYCHQYDRLPYTFGQGTKLEIK
For the molecule B1, the binding result was “binds”.
